# Data published in patent publication US11332546B2, “Protease inhibitory antibodies and methods of use thereof” (The Regents of The University of California, priority 2019, dated 2022).
# T1: BACE2 (Homo sapiens, UniProt Q9Y5Z0)
# T1 sequence (Q9Y5Z0 63-518): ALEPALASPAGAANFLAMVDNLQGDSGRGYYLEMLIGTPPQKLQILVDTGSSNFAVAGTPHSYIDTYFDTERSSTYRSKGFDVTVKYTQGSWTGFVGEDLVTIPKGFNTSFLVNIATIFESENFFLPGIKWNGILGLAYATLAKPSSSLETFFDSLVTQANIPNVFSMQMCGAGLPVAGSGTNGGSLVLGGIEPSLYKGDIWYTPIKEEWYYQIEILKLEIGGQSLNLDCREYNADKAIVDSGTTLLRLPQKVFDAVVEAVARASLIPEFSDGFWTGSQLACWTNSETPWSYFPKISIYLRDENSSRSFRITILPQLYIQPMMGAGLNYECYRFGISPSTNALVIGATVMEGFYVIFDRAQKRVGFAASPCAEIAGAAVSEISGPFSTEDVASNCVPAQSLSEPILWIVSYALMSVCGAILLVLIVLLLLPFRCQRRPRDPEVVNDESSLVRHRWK
# Columns and labels:
# cdMMP-9 = experiment: FRET inhibition selectivity test, cdMMP-9 (Example 1); format: biochemical; details: Fab at 500 nM
# Method: (§1) For inhibition tests, 1 μM Fabs were 2-fold serially diluted into protease specific assay buffer and incubated with 1-10 nM proteases for 30 min at room temperature. […] Inhibition percentages at given concentrations were calculated by comparing the initial reaction rates in the presence or absence of inhibitor. IC50 was determined as the concentration that achieved 50% inhibition, and KI values were calculated using KI=IC50/(S/Km+1). Vmax and Km at various Fab concentrations were measured to determine the inhibition type. FRET inhibition assays were also used for selectivity tests of isolated Fabs with the relevant proteases.
# cdMMP-14 = cdMMP-14 (Homo sapiens, UniProt P50281); experiment: In vitro proteolytic stability of Fab with its target protease (cdMMP-14); format: physicochemical; parameters: human MMP-14 (residue 114-320); hexahistidine (C); made in house; host or cells: E. coli (periplasm); details: 1 μM Fab with 1 μM protease, 37° C., 24 hours, SDS-PAGE
# BACE1 [1] = target: T2, BACE1 (Homo sapiens, UniProt P56817); experiment: FRET peptide inhibition assay, BACE1 (M-2420); format: biochemical; details: IgG format; BACE-1, FRET peptide
# T2 construct: human β-secretase 1 (BACE1, residue 46-457); made in house; host or cells: HEK293F (secreted, protein A purified)
# Method: as §1
# BACE2 = target: T1, BACE2; experiment: FRET inhibition selectivity test, BACE2; format: biochemical; details: IgG
# Method: as §1
# BACE1 [2] = target: T2, BACE1; experiment: Amyloid precursor protein (MBP-APP571-696) degradation by BACE1; format: biochemical; details: 1 μM IgG, 1 μM BACE1, 5 μM MBP-APP, 37° C., 24 h; 86% without IgG
# Method: For amyloid precursor protein (APP) degradation studies, APP571-696 was cloned to the C-terminal of maltose binding protein (MBP) for E. coli expression and purified using amylose resin (NEB). 5 μM purified MBP-APP was incubated with 1 μM BACE1-Fc in the absence or presence of 1 μM IgG in BACE1 assay buffer at 37° C. for 24 h. In addition, APP571-696 was cloned to a pcDNA plasmid carrying a SPE leader for secretion expression. Transfected HEK293F cells were cultured in Expi293 media for 72 hrs with the presence of 14-800 nM purified IgG. The supernatants were clarified by centrifugation and 0.45 μm filtration, and produced Aβ1-40 was quantified by ELISA (Abcam).
# T2 sequence (P56817 46-457): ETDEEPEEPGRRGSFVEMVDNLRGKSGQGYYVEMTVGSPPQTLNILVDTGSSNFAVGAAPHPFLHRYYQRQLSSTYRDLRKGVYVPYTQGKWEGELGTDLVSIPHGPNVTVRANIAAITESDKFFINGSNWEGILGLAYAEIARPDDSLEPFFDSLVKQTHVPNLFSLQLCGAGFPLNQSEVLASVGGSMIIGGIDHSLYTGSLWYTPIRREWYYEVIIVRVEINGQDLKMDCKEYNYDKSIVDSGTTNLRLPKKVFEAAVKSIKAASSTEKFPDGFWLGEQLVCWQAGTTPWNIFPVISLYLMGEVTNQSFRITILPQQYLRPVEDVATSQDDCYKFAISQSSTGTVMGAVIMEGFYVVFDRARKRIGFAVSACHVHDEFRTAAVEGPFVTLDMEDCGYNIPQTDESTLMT
"Inhibition Potency KI (associated IgG, in parentheses) (BACE1 [1]) [nM]",Inhibition of BACE2 (selectivity) (BACE2),Cleavage of APP571-696 by BACE1 in presence of IgG (BACE1 [2]) [%],Molecule,Inhibition of cdMMP-9 (selectivity) (cdMMP-9),Fab remained intact after exposure to protease (cdMMP-14) [%]
,,,"Fab 2B4: anti-MMP-14 antibody clone; VL SEQ ID NO:88, VH SEQ ID NO:1, CDR-H3 SEQ ID NO:4 (antibody, V domains shown) VH: EVQLVESGGGLVQPGGSLRLSCAASGFNLYSSYIHWVRQAPGKGLEWVASIYSSYSSTYYADSVKGRFTISADTSKNTAYLQMNSLRAEDTAVYYCARSDSAVYSVRRMGSSGLAAYAMDYWGQGTLVTVSSAS VL: DIQMTQSPSSLSASVGDRVTITCRASQSVSSAVAWYQQKPGKAPKLLIYSASSLYSGVPSRFSGSRSGTDFTLTISSLQPEDFATYYCQQYSYGYSSLITFGQGTKVEIKR",did not inhibit,76
35,but not BACE2,37,"IgG B1A4: anti-BACE1 inhibitory Fab B1A4 converted into IgG format (antibody, V domains shown) VH: EVQLVESGGGLVQPGGSLRLSCAASGFNISYSSIHWVRQAPGKGLEWVAYISPSSSYTSYADSVKGRFTISADTSKNTAYLQMNSLRAEDTAVYYCARHYYVSVGSGIDYWGQGTLVTVSSAS VL: DIQMTQSPSSLSASVGDRVTITCRASQSVSSAVAWYQQKPGKAPKLLIYSASSLYSGVPSRFSGSRSGTDFTPTISSLQPEDFATYYCQQASASPYALITFGQGTKVEIKR",,
